Substitutions are numbered along the chain they refer to.
T1: Human latent myostatin (human, UniProt O14793 25-266; O14793 267-375)
T1 construct: Biotinylated in the ELISAs; also called human myostatin latent form
T1 sequence 1: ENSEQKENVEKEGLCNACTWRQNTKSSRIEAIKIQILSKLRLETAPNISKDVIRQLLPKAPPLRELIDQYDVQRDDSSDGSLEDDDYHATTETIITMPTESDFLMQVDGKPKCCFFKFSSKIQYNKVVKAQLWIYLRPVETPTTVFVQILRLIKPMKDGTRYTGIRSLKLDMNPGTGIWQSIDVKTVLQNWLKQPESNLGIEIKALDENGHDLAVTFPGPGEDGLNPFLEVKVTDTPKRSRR
T1 sequence 2: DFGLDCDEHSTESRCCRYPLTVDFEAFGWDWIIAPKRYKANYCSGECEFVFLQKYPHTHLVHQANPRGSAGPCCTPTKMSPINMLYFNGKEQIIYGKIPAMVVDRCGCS

T2: Mouse latent myostatin (mouse, UniProt O08689 26-267; O08689 268-376)
T2 construct: Latent form = complex of two propeptides and the mature dimer
T2 sequence 1: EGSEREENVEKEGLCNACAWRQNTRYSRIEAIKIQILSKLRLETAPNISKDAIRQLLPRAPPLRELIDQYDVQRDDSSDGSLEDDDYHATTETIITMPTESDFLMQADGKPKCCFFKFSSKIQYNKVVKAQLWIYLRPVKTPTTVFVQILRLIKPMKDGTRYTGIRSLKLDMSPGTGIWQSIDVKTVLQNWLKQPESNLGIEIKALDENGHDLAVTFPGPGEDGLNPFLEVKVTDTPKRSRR
T2 sequence 2: T1 sequence 2

T3: Human latent myostatin (human, UniProt O14793 25-266; O14793 267-375)
T3 construct: also called human myostatin latent form
T3 sequence 1: T1 sequence 1
T3 sequence 2: T1 sequence 2

T4: Cynomolgus monkey latent myostatin (cynomolgus monkey, UniProt Q95J86 25-266; Q95J86 267-375)
T4 construct: Latent form = complex of two propeptides and the mature dimer; also called Cyno latent myostatin
T4 sequence 1: T1 sequence 1 with V52A
T4 sequence 2: T1 sequence 2

B1: MS_M103205H781-SG1/M103202L719-SK1 (antibody, human IgG1, kappa, V domains shown)
VH: QVTLKESGPVLVKPTETLTLTCTVSGIDLSHTDISWVRQAPGKGLEWVGIISYAGSTYYMSWAKGRLTISKDTSKNQVVLTMTNMDPVDTATYYCARGVPAYSHGGDLWGQGTLVTVSS
VL: DIVMTQSPATLSLSPGERATLSCQSSQSVYHNNWLSWFQQKPGQPPKLLIYWASTLAFGVPSRFSGSGSGTDFTLTISSLQPEDAATYYCAGGYGGGLYAFGQGTKVEIKR
notes: also called MS1032LO02-SG1; MSLO-02
B2: MS_M103205H781-SG1/M103202L813-SK1 (antibody, human IgG1, kappa, V domains shown)
VH: B1 VH
VL: B1 VL with S25T, N32D, F58S, L98R
notes: also called MS1032LO03-SG1; MSLO-03
B3: MS_M103205H1004-SG1/M103202L889-SK1 (antibody, human IgG1, kappa, V domains shown)
VH: B1 VH with T32D, T57M, M60A, L108K
VL: B1 VL with Q24T, N32A, F58Y, L98R
notes: also called MS1032LO07-SG1
B4: MS_M103205H1046-SG1/M103202L889-SK1 (antibody, human IgG1, kappa, V domains shown)
VH: B1 VH with S56K, M60A, G65K
VL: B1 VL with Q24T, N32A, F58Y, L98R
notes: also called MS1032LO10-SG1
B5: MS_M103205H1047-SG1/M103202L889-SK1 (antibody, human IgG1, kappa, V domains shown)
VH: B1 VH with S56K, T57K, M60A
VL: B1 VL with Q24T, N32A, F58Y, L98R
notes: also called MS1032LO11-SG1
B6: MS_M103205H1057-SG1/M103202L889-SK1 (antibody, human IgG1, kappa, V domains shown)
VH: B1 VH with T57K, Y59K, M60A
VL: B1 VL with Q24T, N32A, F58Y, L98R
notes: also called MS1032LO12-SG1
B7: MS_M103205H1795-SG1/M103202L1060-SK1 (antibody, human IgG1, kappa, V domains shown)
VH: B1 VH with T32D, M60A
VL: B1 VL with Q24T, Y30F, N32E, F58W, L98R
notes: also called MS1032LO24-SG1
B8: MS_M103245H1233-SG1/M103202L1045-SK1 (antibody, human IgG1, kappa, V domains shown)
VH: B1 VH with T23K, T32E, G49S, M60A
VL: B1 VL with Q24T, S25T, N32E, F58Y, L98R
notes: also called MS1032LO23-SG1
B9: MS_M103240H795-SG1/M103202L1045-SK1 (antibody, human IgG1, kappa)
heavy: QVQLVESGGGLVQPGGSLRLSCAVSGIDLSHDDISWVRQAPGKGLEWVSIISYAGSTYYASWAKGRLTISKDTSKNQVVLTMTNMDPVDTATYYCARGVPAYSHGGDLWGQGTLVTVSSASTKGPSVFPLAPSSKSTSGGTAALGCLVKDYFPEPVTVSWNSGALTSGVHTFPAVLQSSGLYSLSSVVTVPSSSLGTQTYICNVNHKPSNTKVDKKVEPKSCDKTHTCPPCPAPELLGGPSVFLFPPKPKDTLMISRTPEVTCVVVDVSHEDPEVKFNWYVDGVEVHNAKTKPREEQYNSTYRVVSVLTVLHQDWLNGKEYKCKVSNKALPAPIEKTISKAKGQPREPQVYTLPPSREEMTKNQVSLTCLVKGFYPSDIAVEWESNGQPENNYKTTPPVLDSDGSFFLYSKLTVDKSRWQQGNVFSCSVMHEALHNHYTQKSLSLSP
light: DIVMTQSPATLSLSPGERATLSCTTSQSVYHENWLSWFQQKPGQPPKLLIYWASTLAYGVPSRFSGSGSGTDFTLTISSLQPEDAATYYCAGGYGGGRYAFGQGTKVEIKRTVAAPSVFIFPPSDEQLKSGTASVVCLLNNFYPREAKVQWKVDNALQSGNSQESVTEQDSKDSTYSLSSTLTLSKADYEKHKVYACEVTHQGLSSPVTKSFNRGEC
notes: also called MS1032LO19-SG1
B10: MS_M103240H1246-SG1/M103202L1045-SK1 (antibody, human IgG1, kappa, V domains shown)
VH: QVQLVESGGGLVQPGGSLRLSCAVSGIDLSHEDISWVRQAPGKGLEWVSIISYAGSKYYASWAKGRLTISKDTSKNQVVLTMTNMDPVDTATYYCARGVPAYSHGGDLWGQGTLVTVSS
VL: B1 VL with Q24T, S25T, N32E, F58Y, L98R
notes: also called MS1032LO25-SG1

What was measured:
Human latent myostatin [1] = molecular target: T1, Human latent myostatin; assay: SPR (BIACORE T200), 37 C, pH7.4, 1:1 fit; title prints avidity, by the text the affinity condition (capture 18.5 RU)
Description: (§1) The kinetic parameters of anti-latent myostatin antibodies against human, cynomolgus monkey (cyno), and mouse latent myostatin were assessed at 37° C. at pH7.4 using a BIACORE® T200 instrument (GE Healthcare). ProA/G (Pierce) was immobilized onto all flow cells of a CM4 chip using amine coupling kit (GE Healthcare). Anti-latent myostatin antibody and analytes were prepared in ACES pH7.4 (20 mM ACES, 150 mM NaCl, 1.2 mM CaCl₂), 0.05% TWEEN® 20, 0.005% NaN₃). […] Then human, cyno, or mouse latent myostatin was injected at 3.125 to 50 nM prepared by two-fold serial dilution, followed by dissociation. The sensor surface was regenerated with 25 mM NaOH. Kinetic parameters were determined by processing and fitting the data to a 1:1 binding model using BIACORE® T200 Evaluation software, version 2.0 (GE Healthcare).
(§2) All experimental settings were the same as in Example 7, except that measurements were also performed in ACES pH5.8 buffer in addition to ACES pH7.4 condition. Some antibodies were only measured against human latent myostatin. Antibody capture level was aimed at 185 RU and 18.5 RU, for avidity and affinity assay, respectively. Kinetic parameters were determined using 1:1 Binding fitting using BIACORE® T200 Evaluation software, version 2.0 (GE Healthcare).

Human latent myostatin [2] = molecular target: T1, Human latent myostatin; assay: SPR (BIACORE T200), 37 C, pH7.4, avidity condition (capture 185 RU), 1:1 fit; pH 7.4
Description: as §1, §2

Human latent myostatin [3] = molecular target: T1, Human latent myostatin; assay: SPR (BIACORE T200), 37 C, pH5.8, avidity condition (capture 185 RU), 1:1 fit; pH 5.8
Description: as §1, §2

Mouse latent myostatin [4] = molecular target: T2, Mouse latent myostatin; assay: SPR 37C; KD pH 5.8 / KD pH 7.4
Description: (§3) ProA/G (Pierce) was immobilized onto all flow cells of a CM4 chip using an amine coupling kit (GE Healthcare). All antibodies and analytes were prepared in ACES pH7.4 or pH5.8 buffer containing 20 mM ACES, 150 mM NaCl, 1.2 mM CaCl₂, 0.05% TWEEN®) 20, 0.005% NaN₃. […] Human, cyno, and mouse latent myostatin was injected at 3.125 to 50 nM prepared by two-fold serial dilution, followed by dissociation. The sensor surface was regenerated each cycle with 10 mM Glycine HCl pH1.5. Binding affinity was determined by processing and fitting the data to a 1:1 binding model using BIACORE® T200 Evaluation software, version 2.0 (GE Healthcare).

Human latent myostatin [5] = molecular target: T3, Human latent myostatin; assay: SPR 37C; KD pH 5.8 / KD pH 7.4
Description: as §3

[6] = molecular target: T4, Cynomolgus monkey latent myostatin; assay: SPR 37C; KD pH 5.8 / KD pH 7.4
Description: as §3

Mouse latent myostatin [7] = molecular target: T2, Mouse latent myostatin; assay: SPR (BIACORE T200) 37C, pH 5.8, antibody captured by ProA/G
Description: as §3

Human latent myostatin [8] = molecular target: T3, Human latent myostatin; assay: as above
Description: as §3

[9] = molecular target: T4, Cynomolgus monkey latent myostatin; assay: as above
Description: as §3

Mouse latent myostatin [10] = molecular target: T2, Mouse latent myostatin; assay: SPR (BIACORE T200) 37C, pH 7.4, antibody captured by ProA/G
Description: as §3

Human latent myostatin [11] = molecular target: T3, Human latent myostatin; assay: as above
Description: as §3

[12] = molecular target: T4, Cynomolgus monkey latent myostatin; assay: as above
Description: as §3

Binder	Kd (Human latent myostatin [1])	koff (Human latent myostatin [1])	kon (Human latent myostatin [1])	Kd (Human latent myostatin [2])	koff (Human latent myostatin [2])	kon (Human latent myostatin [2])	Kd (Human latent myostatin [3])	koff (Human latent myostatin [3])	kon (Human latent myostatin [3])	ratio of KD at pH 5.8/pH 7.4 (Mouse latent myostatin [4])	ratio of KD at pH 5.8/pH 7.4 (Human latent myostatin [5])	ratio of KD at pH 5.8/pH 7.4 [6]	Kd (Mouse latent myostatin [7])	Kd (Human latent myostatin [8])	Kd [9]	Kd (Mouse latent myostatin [10])	Kd (Human latent myostatin [11])	Kd [12]
B1	1.64 nM	0.00179 s⁻¹	1.09e+06 M⁻¹ s⁻¹	0.298 nM	0.000249 s⁻¹	836000 M⁻¹ s⁻¹	24.3 nM	0.0414 s⁻¹	1.7e+06 M⁻¹ s⁻¹									
B2	1.08 nM	0.00117 s⁻¹	1.08e+06 M⁻¹ s⁻¹	0.196 nM	0.000192 s⁻¹	981000 M⁻¹ s⁻¹	9.66 nM	0.00524 s⁻¹	543000 M⁻¹ s⁻¹									
B3										97	168	102	30.8 nM	46.2 nM	34.7 nM	0.319 nM	0.275 nM	0.339 nM
B4										35	125	38	10.9 nM	43.8 nM	16.1 nM	0.334 nM	0.351 nM	0.419 nM
B5										81	341	87	29.2 nM	143 nM	43.5 nM	0.362 nM	0.419 nM	0.502 nM
B6										60	209	73	24.8 nM	84.9 nM	35.8 nM	0.413 nM	0.407 nM	0.492 nM
B7										6	9	5	1.02 nM	1.52 nM	0.929 nM	0.176 nM	0.164 nM	0.189 nM
B8										24	62	26	6.4 nM	16.1 nM	7.71 nM	0.266 nM	0.26 nM	0.299 nM
B9										106	168	109	28.7 nM	45.8 nM	35.6 nM	0.271 nM	0.273 nM	0.326 nM
B10										38	92	41	9.88 nM	25.5 nM	14.1 nM	0.259 nM	0.276 nM	0.34 nM

Source: patent US20200317768A1 (published 2020)
